The values that follow are results of earlier work, collected in patent US8217152B2, “Process for the purification of IL-18 binding protein” (Ares Trading S.A., priority 2005, dated 2012).

Series [1] deals with T1, IL-18 (Homo sapiens, UniProt Q14116).
T1 sequence (Q14116 37-193): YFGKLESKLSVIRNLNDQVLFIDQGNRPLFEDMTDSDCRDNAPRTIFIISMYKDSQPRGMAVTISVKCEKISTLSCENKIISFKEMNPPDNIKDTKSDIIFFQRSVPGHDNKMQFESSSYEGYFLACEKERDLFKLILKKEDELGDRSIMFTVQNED
The note with it: Kim et al. 2000; read-out: dissociation constant (Kd) for IL-18.

The subject of series [2] is induction of IFN-γ. To be noted: mice injected with LPS.
For series [3], the system named is IL-18 activation of NF-κB. To be noted: in vitro.
Series [4] has as its system IL-18 induction of IFN-γ. The note with it: in vitro.

B1: IL-18BP: naturally occurring soluble protein that binds IL-18 (protein, UniProt O95998 31-194, looked up)
Interleukin-18-binding protein: TPVSQTTTAATASVRSTKDPCPSQPPVFPAAKQCPALEVTWPEVEVPLNGTLSLSCVACSRFPNFSILYWLGNGSFIEHLPGRLWEGSTSRERGSTGTQLCKALVLEQLTPALHSTNFSCVLVDPEQVVQRHVVLAQLWAGLRATLPPTQEALPSSHSSPQQQG
As usually defined, the Kd is a measure of binding affinity in units of concentration. Consider B1, for which the Kd in series [1] is 0.4 nM. The “effect on induction of IFN-γ” value in series [2] was “inhibits”. Also, the “effect on IL-18 activation of NF-κB” value in series [3] was “abolishes”. The “effect on IL-18 induction of IFN-γ” value in series [4] is reported as “abolishes”.
